In patent publication US20220281997A1:
Changes are numbered by the printed parent chain.

Target: camel-derived heavy-chain antibodies on camel PBMC cells
Assay: flow cytometry, PE-labeled antibody on PBMC of a non-immunized camel

B1: R166.H9 (antibody, V domains shown)
VH: QSLEESGGRLVTPGTPLTLTCTASGFSLNNYNMIWVRQAPGEGLEWIGMIGDGDDAAWYASWAKGRFTISKTSTTVDLEVTSLTTEDTAIYFCARYLSFTRLDLWGQGTLVTVSS
VL: AVLTQTPSPVSAAVGGTVTINCQSSQSVYHNNWLAWYQQKPGQPPKLLIYGAATLASGVPSRFKGSGSGTQFTFTITDVQCDDVGTYYCAGVYNDDSENAFGGGTEVVVKG
proportion of PBMC cells specific for heavy-chain antibodies: 24.2%

B2: R166.G8 (antibody, V domains shown)
VH: LEQSGGGAEGGLVKPGGSLELCCKASGFSLSNIYWICWVRQAPGTGLEWIGCINSGSNSYTYYANWVDGRFTLSRDIDQSTGCLQLNSLTAADTAMYYCARDRDAADTSDWSLNFWGQGTLVTVSS
VL: QVLTQTPSSVSAAVGGTVTISCQSSDSVNNDNWLAWYQQKPGQPPKLLIYQASKLASGVPSRFSGSGSGTQFTLTISGVQCDDAANYYCQGTGYSSTWYVAFGGGTEVVVKG
proportion of PBMC cells specific for heavy-chain antibodies: 17.2%

B3: R166.C5 (antibody, V domains shown)
VH: QSVEESGGRLVTPGTPLTLTCTVSGFSLRNFAMSWVRQAPGKGLEWIGIIYSGGTRDYATWAKGRFTISKTSTTVDLKMTSPTTEDTATYFCARDRSPDYSAAFLLWGQGTLVTVSS
VL: IVMTQTPSSKSVPVGDTVTINCQASESVYSNNHLAWFQQKPGQPPKLLIYSASTLESGVPSRFKGSGSGTQFTLTISGVQCDDAATYYCAGYKSSDTDGTSFGGGTEVVVKG
proportion of PBMC cells specific for heavy-chain antibodies: 22.8%

B4: R166.E7 (antibody, V domains shown)
VH: B3 VH with R29S, N30S, S52T, L105N
VL: B3 VL
proportion of PBMC cells specific for heavy-chain antibodies: 23.3%

B5: R166.H8 (antibody, V domains shown)
VH: QSVEESGGRLVTPGTPLTLTCTVSGFSLSSFAMSWVRQAPGKGLEWIGIIYATGGTRDYATWAAGRFTISKTSTTVGLKMTSPTTEDTATYFCARDRSPDYSAAFNLWGQGTLVTVSS
VL: B3 VL
proportion of PBMC cells specific for heavy-chain antibodies: 23.6%
